Tests used:
[1] = molecular target: T1, Sp1 (rhSp1) (UniProt P08047 1-785); experiment: competition
[2] = molecular target: T1, Sp1 (rhSp1); experiment: EMSA

T1 sequence (P08047 whole entry): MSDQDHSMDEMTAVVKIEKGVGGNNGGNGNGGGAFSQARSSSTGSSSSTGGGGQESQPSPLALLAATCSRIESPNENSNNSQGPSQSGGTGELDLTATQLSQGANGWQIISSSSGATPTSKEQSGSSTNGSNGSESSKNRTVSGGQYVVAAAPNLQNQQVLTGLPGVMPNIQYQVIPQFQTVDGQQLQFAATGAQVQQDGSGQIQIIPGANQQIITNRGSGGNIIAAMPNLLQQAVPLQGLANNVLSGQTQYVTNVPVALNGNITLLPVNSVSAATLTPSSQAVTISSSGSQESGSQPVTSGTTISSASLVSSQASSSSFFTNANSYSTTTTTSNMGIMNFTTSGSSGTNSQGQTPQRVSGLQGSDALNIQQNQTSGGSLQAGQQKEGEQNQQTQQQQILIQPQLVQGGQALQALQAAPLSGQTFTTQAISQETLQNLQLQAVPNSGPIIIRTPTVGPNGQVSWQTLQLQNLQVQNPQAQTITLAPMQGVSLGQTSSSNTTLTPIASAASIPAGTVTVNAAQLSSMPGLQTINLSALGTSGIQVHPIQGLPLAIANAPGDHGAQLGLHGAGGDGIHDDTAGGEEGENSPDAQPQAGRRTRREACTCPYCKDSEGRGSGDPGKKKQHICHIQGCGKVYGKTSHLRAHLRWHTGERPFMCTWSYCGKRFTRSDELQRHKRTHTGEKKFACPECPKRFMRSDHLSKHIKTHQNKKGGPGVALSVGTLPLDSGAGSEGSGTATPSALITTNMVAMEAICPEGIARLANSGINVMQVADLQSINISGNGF

| Binder | binding result [1] | binding result [2] |
| --- | --- | --- |
| DUT Sp1Δ (dsDNA) DNA 1: GTTCGGTGGGTGGTTCGGGGCTGGCTTG DNA 2: CAAGCCAGCCCCGAACCACCCACCGAAC | no binding | – |
| DUT Sp1 (-64 to -91) (dsDNA) DNA 1: GGGCGGTGGGTGGGGCGGGGCTGGCGGG DNA 2: CCCGCCAGCCCCGCCCCACCCACCGCCC | – | binds |

From publication PMC2615606
